{"source": "patent KR20160003317A", "about": "(dated 2016)", "binders": {"B1": {"name": "SC06-432 (scFv)", "scFv": "QLQLQESGPGLVKPSQTLSLTCTVSGGSISSGGYYWSWIRQHPGKGLEWIGYIYYSGSTYYNPSLKSRVTISVDTSKNQFSLKLSSVTAADTAVYYCARERILDRMNDYWGQGTLVTVSSGTGGSGGTGSGTGGSTQSVVTQPPSVSGAPGQRVTISCTGSSSNIGAGYDVHWYQQLPGTAPKLLIYGNSNRPSGVPDRFSGSKSGTSASLAITGLQAEDEADYYCQSSDSSLNILFGGGTKLTVL", "notes": "single-chain phage antibody: the scFv stood on phage in the ELISA"}, "B2": {"name": "SC05-187 (scFv)", "scFv": "EVQLVQSGAEVKKPGESLKISCKGSGYSFTKYWIGWVRQMPGKGLEWMGIIYPGDSDTRYSPSFQGQVTISADKSISTAYLQWSSLKASDTAMYYCARGSGIATGNSFDSWGQGTLVTVSSGTGGSGGTGSGTGGSTQTVVTQEPSLTVSPGGTVTLTCASSTGAVTSGYYPNWFQQKPGQAPRALIYSTSKKHSWTPARFSGSLLGGRAALTLSGAQPEDEADYYCLLSYGGARVFGGGTKLTVL", "notes": "as for B1"}, "B3": {"name": "SC05-179 (scFv)", "scFv": "EVQLVESGGGLVKPGGSLGLSCAASGFFFSDYSMSWIRQAPGKGLEWLSNISGSGHSTKYAESMRGRITISRDNAKKSLSLQLNSLRAEDTAVYFCVRGGGYRMDVWGQGTTVTVSSGTGGSGGTGSGTGGSTQSALTQPRSVPGSPGQSVTISCTGTSSDVGGYNYVSWYQQHPGKAPKLMIYDVSKRPSGVPDRFSGSKSGNTASLTVSGLQAEDEADYYCSSYAGSNNFVVFGGGTKLTVL", "notes": "as for B1"}, "B4": {"name": "SC06-049 (scFv)", "scFv": "QVQLVQSGAEVKKPGESLKISCKGSGYSFTSYWIGWVRQMPGKGLEWMGIIYPGDSDTRYSPSFQGQVTISADKSIGTAYLQWSSLKASDTAMYYCARLFRVRGGHFDSWGQGTLVTVSSGTGGSGGTGSGTGGSTQSALTQPASVSGSPGQSITISCTGTNSDVGGYNYVSWYQQHPGKAPKLLIYDVTNRPSGVSNRFSASKSGNTASLTISGLQAEDEADYYCSSFTSSSTRVFGGGTKLTVL", "notes": "as for B1"}, "B5": {"name": "SC06-050 (scFv)", "scFv": "EVQLVESGPEVKKPGASVKVSCEASGYNLDNYGITWVRQAPGQGLEWLGWISAYNAKTEYGQRLQGRVTMTTDTATSTAYLELRSLRSDDTAVYYCARVLGYRGGWYDEGDAFDVWGQGTMVTVSSGTGGSGGTGSGTGGSTDIQLTQSPSFLSASVGDRVTITCRASQGIRSHLAWYQQKAGKAPKLLIYAASTLQSGVPSRFSGSGSGTEFTLTISSLQPDDFAAYYCQQLNTYPITFGQGTRLEIK", "notes": "single-chain phage antibody: the scFv stood on phage in the ELISA; also called SC05-050"}, "B6": {"name": "SC06-429 (scFv)", "scFv": "QVQLVQSGAEVKNPGESLKISCKGSGYTFTSYWIGWVRQMPGKGLEWMGSIYPGDSDTRYSPSFQGQVTISVDKSISTAYLQWSSLKASDTAMYYCARQYRAGSTTRFDPWGQGTLVTVSSGTGGSGGTGSGTGGSTDVVMTQSPLSLPVTPGEPASISCRSSQSLRHRNGNNYLDWYLQKPGQSPQLLIYLGSNRASGVPDRFSGSGSGTDFTLKISRVEAEDVGIYYCMQALQTPLTFGGGTKVEIK", "notes": "as for B1"}, "B7": {"name": "SC06-043 (scFv)", "scFv": "EVQLVESGAEVKKPGESLKISCKGSGYSFTSYWIGWVRQMPGKGLEWMGIIYPGDSDTRYSPSFQGQVTISADKSISTAYLQWSSLKASDTAMYYCARRYCSGGTCSDGFDIWGQGTMVTVSSGTGGSGGTGSGTGGSTQSALTQPPSASGSPGQSVTISCTGTSSDVGGYNYVSWYQQHPGKAPKLMIYEVSKRPSGVPDRFSGSKSGNTASLTVSGLQAEDEADYYCSSYAGSNNLVFGGGTKLTVL", "notes": "as for B1"}, "B8": {"name": "SC06-409 (scFv)", "scFv": "EVQLVQSGAEVKKPGESLKISCKGSGYSFTNYWIGWVRQMPGKGLEWMGIIYPGDSDTRYSPSFQGQVTISADKSISTAYLQWSSLKASDTAMYYCARHTQNKNGMNTFDIWGQGTMVTVSSGTGGSGGTGSGTGGSTQSALTQPPSASGSPGQSVTISCTGTSSDIGGYNYVSWYQQHPGKAPKLMIYEVSNRPPGVSNRFSGSKSGNTASLTISGLQAEDEADYYCSSYSTTTTRVIFGGGTKLTVL", "notes": "as for B1"}, "B9": {"name": "SC06-388 (scFv)", "scFv": "EVQLVETGAEVKKPGESLRISCKGSGYSFTSYWIAWVRQMPGKGLEWMGVIYPGDSDARYSPSFQGQVTMSVDKSISTAYLQWSSLKASDTAMYYCAKLRSKNTGLDYWGQGTLVTVSSGTGGSGGTGSGTGGSTQSALTQPPSASGSPGQSVTISCTGTSSDVGGYNFVSWYQQHPGKAPKLMIYEVSNRPSGVPDRFSGSKSGNTASLTVSGLQAEDEADYYCSSYAGNNNLAFGGGTQLTVL", "notes": "as for B1"}, "B10": {"name": "SC06-402 (scFv)", "scFv": "QVQLVQSGAEVKKPGESLKISCKGSGYSFTSYWIGWVRQMPGKGLEWMGIIYPGDSDTRYSPSFQGQVTISADKSISTAYLQWSSLKASDTAMYYCARWGGVCSSTSCPNRDAFDIWGQGTMVTVSSGTGGSGGTGSGTGGSTQSALTQPRSVSGSPGQSVTISCTGTSSDVGGYNYVSWYQQHPGKAPKLMIYDVSNRPSGVSNRFSGSKSGNTASLTISGLQAEDEAEFHCSSYRSSGASPVVFGGGTKLTVL", "notes": "as for B1"}, "B11": {"name": "SC06-016 (scFv)", "scFv": "QVQLVQSGPEVKKPGASVTVSCKASGYSFSSYGISWVRQAPGQGLEWMGRIIPVGGNTLYSQMFQGRVTMTSDTSTSTVYLELSSLRSEDTAVYFCARDGGRWQFDYWGQGTLVTVSSGTGGSGGTGSGTGGSTDIQLTQSPSSVSASVGDRVTITCRASQGISNWLAWYQQKPGKAPELLIYAASSLQSGVPPRFSGSASGTDFTLTISSLQPEDFATYYCQQSKNFPYTFGQGTKVEIK", "notes": "as for B1"}, "B12": {"name": "SC06-389 (scFv)", "scFv": "QVQLVQSGAEVKKPGESLKISCKGSGYSFSTYWIGWVRQMPGKGLEWMGIIYPGDSDTRYSPSFQGQVTISADKSISTAHLQWSSLKASDTAMYYCARPGPRGYNHGFDYWGQGTLVTVSSGTGGSGGTGSGTGGSTSSELTQDPAESVALGQTVKITCQGDSLRRYYASWYQQKPGQAPVLVIYGKNNRPSGIPDRFSGSRSGNTASLTITGAQAEDEAVYYCNSRDSSGNSVVFGGGTKLTVL", "notes": "as for B1"}, "B13": {"name": "SC06-415 (scFv)", "scFv": "EVQLVESGGGLVQPGRSLRLSCAASGFTFDDYAMHWVRQAPGKGLEWVSGISWNSGSIGYADSVKGRFTISRDNAKNSLYLQMNSLRAEDSAVYYCARGGQRFDFWGQGTLVTVSSGTGGSGGTGSGTGGSTQSALTQPPSASGSPGQSVTISCTGTSSDVGGYNYVSWYQQLPGKAPKLLIYDVNNRPSGVSNRFSGSKSGNTASLTISGLQAEDEAEYYCGSSVGSRLRIFGGGTKLTVL", "notes": "as for B1"}}, "data": [{"target": "T1, 송아지 혈청 알부민(BSA) (bovine (printed: 송아지 혈청 알부민), UniProt P02769 25-607)", "T1 construct": "also called bovine serum albumin", "T1 sequence (P02769 25-607 limits assumed)": "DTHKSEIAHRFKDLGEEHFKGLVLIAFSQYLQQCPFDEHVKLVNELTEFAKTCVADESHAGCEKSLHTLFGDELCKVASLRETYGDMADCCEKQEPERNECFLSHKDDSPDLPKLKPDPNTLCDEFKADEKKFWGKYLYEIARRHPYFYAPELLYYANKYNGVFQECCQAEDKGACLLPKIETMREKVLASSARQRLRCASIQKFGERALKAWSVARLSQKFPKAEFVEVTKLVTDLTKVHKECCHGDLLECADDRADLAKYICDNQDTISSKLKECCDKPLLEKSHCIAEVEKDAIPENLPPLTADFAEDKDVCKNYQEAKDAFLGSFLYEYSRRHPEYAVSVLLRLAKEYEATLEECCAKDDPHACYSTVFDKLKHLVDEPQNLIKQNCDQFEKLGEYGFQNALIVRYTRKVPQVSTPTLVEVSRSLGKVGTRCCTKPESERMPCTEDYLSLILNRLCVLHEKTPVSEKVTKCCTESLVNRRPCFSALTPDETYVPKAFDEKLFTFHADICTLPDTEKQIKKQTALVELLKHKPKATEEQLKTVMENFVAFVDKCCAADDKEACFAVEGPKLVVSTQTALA", "experiment": "phage ELISA, 1% BSA coated, anti-M13-peroxidase, absorbance 492 nm", "values": [{"binder": "B1", "binding result": "no binding"}, {"binder": "B2", "binding result": "no binding"}, {"binder": "B3", "binding result": "no binding"}, {"binder": "B4", "binding result": "no binding"}, {"binder": "B5", "binding result": "no binding"}, {"binder": "B6", "binding result": "no binding"}, {"binder": "B7", "binding result": "no binding"}, {"binder": "B8", "binding result": "no binding"}, {"binder": "B9", "binding result": "no binding"}, {"binder": "B10", "binding result": "no binding"}, {"binder": "B11", "binding result": "no binding"}, {"binder": "B12", "binding result": "no binding"}, {"binder": "B13", "binding result": "no binding"}]}]}
